The supplement of paper PMC9170038

Tested on: MS2 coat protein
Test: apparent KD of MS2 coat protein; designed switch direction (-1 OFF switch, 1 ON switch): -1; higher = weaker reporter binding
Summary of the method: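 An oligonucleotide input, 200 uM small-molecule ligand, or no input was present during titration of SNAP-549-labelled MS2 coat protein, which was doubled from 0.7 or 1.5 nM to 3 µM. Designed RNA switches had been transcribed on Illumina chips by stalled E. coli RNA polymerase. Apparent KD per design is the median over clusters of curves fitted to normalised cluster fluorescence.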

[1] = input ligand: microRNA oligo, concentration not stated
[2] = Eterna round: R95, input ligand: microRNA oligo, concentration not stated
[3] = Eterna round: R95, input ligand: FMN 200 uM
[4] = Eterna round: R95, input ligand: none

Row | Sequence | apparent KD of MS2 coat protein (input ligand: FMN 200 uM) [nM] | apparent KD of MS2 coat protein [1] [nM] | apparent KD of MS2 coat protein (input ligand: none) [nM] | apparent KD of MS2 coat protein [2] [nM] | apparent KD of MS2 coat protein [3] [nM] | apparent KD of MS2 coat protein [4] [nM]
1 | AGUCAGGCGGUAGGAUAUCCAAACCGAGUGACCCUCUCAUAACAUGAGGAUCACCCAUGUCGGUGGGAGAAGGGCCGUACGGCG [Atra] (Eterna round: R96, puzzle: Exclusion NG 2) | 206 | 90 | 117 |  |  | 
2 | CCUUGACAUGAGGAUCACCCAUGUGAGGAUAUCCUGCGAGGAUCAAAAGAUCCUCGUGGGAGAAGGCAUAUGAA [Omei Ex1 A7] (Eterna round: R97, puzzle: Exclusion 1) | 32.6 |  | 16.7 |  |  | 
3 | UUAUUUUUUGAGGAUAUGCGACGUUUUUUCGUCGUAGAAGGCGAUACAUGAGGAUCACCCAUGUUUAUGGGCAU [LRO-Ex6-13] (puzzle: Exclusion 6) |  |  |  | 73.8 |  | 
4 | CUGAUGUGAGGAUAUCUAAAAGAAACUGGGCAAAAUACCAGAGAGAAGGCACAUGAGGAUCACCCAUGUAACGA [Rabigeri] (puzzle: Exclusion 4) |  |  |  | 19.5 |  | 
5 | AGUCGGCGAGGAUAUACAUGAGGAUCACCCAUGUGGAAUCCUAGACCUGUAGGUCCAUGUAGAAGGCGCUGACA [Exclusion 3 - Was a mod at one point v.2] (puzzle: Exclusion 3) |  |  |  | 212 | 32.2 | 192
6 | CUCAUGCCUGAGGAUAUGCUGUACAAAAGUACUGCAGAAGGCAGAACAUGAGGAUCACCCAUGUGGCGAAAGCC [Omei Ex G1] (Eterna round: R97, puzzle: Exclusion 6) | 549 |  | 106 |  |  | 
7 | GCAGAAAGUGUAGGAUAUCUAAUAAAGCGGAAACGCAAGACAUGAGGAUCACCCAUGUGUCCGGAAGAGAAGGGCAAAAGCUGC [EXNG2 V2 c] (Eterna round: R96, puzzle: Exclusion NG 2) | 26.6 | 22.7 | 38.2 |  |  | 
8 | CCAGCGUAUGUGAGGAUAUGCUGGUCCUUGGAUCAGCAGAAGGCACAUGAGGAUCACCCAUGUGAGAGCGUUGG [JL bmx4 3.37] (Eterna round: R96, puzzle: Brourd's mod of Exclusion 4) | 187 | 25.6 | 30.4 |  |  | 
9 | GCUUUUCUUUUCCUUUCUUACAUGAGGAUCACCCAUGUUUCUUGUCCUGCUCGCGUUGCUCGUCUGUCUGUCUGUUG [salish99_TOv1_r3_080] (puzzle: Sensor v3, turn-off variant 1) |  |  |  | 24.3 | 28.7 | 31.2
10 | GAUCAACAUGAGGAUCACCCAUGUGAGGAUAUGAUACUAUGUACUUCGGUACAUAGUAUCAGAAGGCAUGUGAA [Ex1-3: 77] (puzzle: Exclusion 1) |  |  |  | 80.1 |  | 
11 | GAAAAGGUAGGAUAUACGAAAAAAAAGGGUAGAAAAAAAAUACAUGAGGAUCACCCAUGUAGAAGGACCAAAAG [salish99_ex2_r3_060] (puzzle: Exclusion 2) |  |  |  | 23.3 | 24.4 | 22.5
12 | UCAUGGAAGCAGGAUAUGCUUGUUUAAUUGUUUGCAGAAGGGCUAACAUGAGGAUCACCCAUGUAAGAGGUCUA [JR_E6_Sub063] (Eterna round: R96, puzzle: Exclusion 6) | 59.6 | 53.3 | 72.5 |  |  | 
13 | CAUCCACAUGAGGAUCACCCAUGUGAGGAUAUGAUACUAUGUACUUCGGUACAUAGUAUCAGAAGGCACAGGUG [Ex1-3: 59] (puzzle: Exclusion 1) |  |  |  | 111 |  | 
14 | ACAUUGGUAGUGAGGAUAUCGGUGAGAUAGAAUGACGAGAAGGCACAUGAGGAUCACCCAUGUAAGAUUGGGCA [JR_BMEx4_Sub042] (Eterna round: R97, puzzle: Brourd's mod of Exclusion 4) | 286 |  | 251 |  |  | 
15 | CUUUUGUGAGGAUAUCAGUAGUAAAAAAAUAAUAUUACUACUGAGAAGGCACAUGAGGAUCACCCAUGUUCCUC [salish99_ex4_r3_024] (puzzle: Exclusion 4) |  |  |  | 38.4 |  | 
16 | UUCCGACAUGAGGAUCACCCAUGUAAGGAUAUGCACUAGAGGACAAACCCUCUUAACGGCAGAAGGUGCAGGGA [Solaleisra] (Eterna round: R97, puzzle: Exclusion 1) | 40.9 |  | 18 |  |  | 
17 | UAGCAGCGAGGAUAUACAGACAGGUCCAAUACGUGUCUUGGACUUGAGGAUCACCCAAGUAGAAGGCGCCACAG [salish99_ex2_r4_602] (Eterna round: R97, puzzle: Exclusion 2) | 104 |  | 62 |  |  | 
18 | AAAUAAUAGAUAAAAUAAAACAUGAGGAUCACCCAUGUAGGCUGAUGAGGGUGAAACAAGCUUUUUGCUCGUCUUAU (puzzle: Sensor v3, turn-off variant 1) |  |  |  | 560 | 154 | 197

Row | Sequence | apparent KD of MS2 coat protein (input ligand: FMN 200 uM) [nM] | apparent KD of MS2 coat protein [1] [nM] | apparent KD of MS2 coat protein (input ligand: none) [nM] | apparent KD of MS2 coat protein [2] [nM] | apparent KD of MS2 coat protein [3] [nM] | apparent KD of MS2 coat protein [4] [nM]
19 | AAUAAACAUGAGGAUCACCCAUGUGAGGAUAUGCAAAUAAAUAAAUAAAUAAAUAAUAGUAGAAGGCGCAAUAA [Excls1-I] (puzzle: Exclusion 1) |  |  |  | 52.6 | 34 | 63
20 | CGGUGUAACGUAGGAUAUCAUCGCAACUGACGUUGAGAAGGACGACAUGAGGAUCACCCAUGUGAUUUCUCAAUAUUAUACAUC [Prohibition 85 - Jieux - Exclusion NG 1] (Eterna round: R96, puzzle: Exclusion NG 1) | 69.6 | 20.4 | 19.6 |  |  | 
21 | GAUUAUGCGAGCUUUAGGGACAUGAGGAUCACCCAUGUUCGUCUUAUUAAUCUAGGUACGCUGACAUACCUAAAUCU [JMF 98] (puzzle: Sensor v3, turn-off variant 1) |  |  |  | 30 | 21.6 | 20.6
22 | ACUAGGAGAUUAGGAUAUCUAUCUCACAUGAGGAUCACCCAUGUAUAAGCGUCCUAAAGGUGGAUGGAGAAGGGAUGUCCGAAG [Eternabot solution 13] (Eterna round: R96, puzzle: Exclusion NG 2) | 14.1 | 13.8 | 17.5 |  |  | 
23 | GUUAAACAUGAGGAUCACCCAUGUAAGGAUAUGCUGCGGUAGAGAUGAAGUGAAUGCAGCAGAAGGUACAAUUG [Mat - Mod of JL D54] (puzzle: Exclusion 1) |  |  |  | 80.5 |  | 
24 | AUUUUAAUAUAGGAUAUCGAAUUUAUUAAUUAUCGAGAAGGAUAAACAUGAGGAUCACCCAUGUGGUAUCAUGG [Mat - Exclusion 6 - JL Mod - D38] (puzzle: Exclusion 6) |  |  |  | 226 |  | 
25 | ACAUAGGUAGGAUAUCUAAGUUGAUACAUGAGGAUCACCCAUGUGUUACUCAAGAUCUACAGAGAAGGGCCUGAGG [Eternabot (L2) Solution 93] (Eterna round: R97, puzzle: Exclusion 5) | 19.7 |  | 15.3 |  |  | 
26 | CUAUUUUUCGCAGGAUAUGCAUCUCCUUUAUUAGCAGAAGGGCGUUAAACAUGAGGAUCACCCAUGUAUUGUGGUGCUUUUUUC [JR_ExcNG1_Sub059] (Eterna round: R96, puzzle: Exclusion NG 1) | 214 | 54.3 | 57.9 |  |  | 
27 | CGUCUGUAAGGAUAUGGUUGCAUCAACAUGAGGAUCACCCAUGUAACUUGGGACUAGUGAUUAGAAGGUACGAACG [EX5 #59] (Eterna round: R97, puzzle: Exclusion 5) | 218 |  | 255 |  |  | 
28 | UGCAGACGAGGAUAUGAUUAAUAAUACAUGAGGAUCACCCAUGUAAUACUGAUCUAUGGAUCAGAAGGCGUCUGCA [E5/6-A1] (Eterna round: R97, puzzle: Exclusion 5) | 11.4 |  | 12.9 |  |  | 
29 | UUUCGGUCAGGAUAUCCCGUACUACUAGCCGCGACUUACGAGGAGAAGGGACAUGAGGAUCACCCAUGUGCGCU [Colors] (Eterna round: R97, puzzle: Exclusion 4) | 16.2 |  | 14.7 |  |  | 
30 | UAUCUUCAUAUCACAUGAGGAUCACCCAUGUUAUUCAUCUCGUAGGAUAUCGAGGUUUUUUUUUUCGAGAAGGACGUAUUGUUU [JR_ExcNG3_Sub078] (Eterna round: R96, puzzle: Exclusion NG 3) | 183 | 159 | 180 |  |  | 
31 | GAGAAGGUAGGAUAUACGAAGAAAAAGGGUAGAAUAAUAACACAUGAGGAUCACCCAUGUAGAAGGACCAAGAG [Mat - Exclusion 2 - Mod of my Tesla design - D19] (puzzle: Exclusion 2) |  |  |  | 16.7 | 44.3 | 20.4
32 | GGGAAGAACCAACAAGUAUACAUGAGGAUCACCCAUGUUCCUAGUGGGUAUGUAAAGAUUAAGAGAGCUCGUCUUAU [AK-miRNA-r3-10] (Eterna round: R97, puzzle: Sensor, turn-off variant 1) | 66.9 |  | 75.3 |  |  | 
33 | GCCAGAGCAGGAUAUUGAUAAAUUCACAUGAGGAUCACCCAUGUCCAGCGAAAGCUGGAACGAGAAGGGCUCUGGC [Mat - Exclusion 5 - Eli mod - D87] (puzzle: Exclusion 5) |  |  |  | 13.3 | 11.7 | 13.7
34 | GUACUAGAAUAUCAGUCGCACAUGAGGAUCACCCAUGUCAUGGGUAGAUCAAUAAAUAAAGAUACUGCUCGUCUUAU [Cac sensor turnoff var1 sub2] (Eterna round: R97, puzzle: Sensor, turn-off variant 1) | 496 |  | 378 |  |  | 
35 | CCCAAAGGGACAAGCUUUUACAUGAGGAUCACCCAUGUUUUGGGAGCUCGUCUUAUGGGCCCGGGAAACCCGGGCCC [-38, -58.7 kcal, A 22%] (Eterna round: R97, puzzle: Sensor, turn-off variant 1) | 17.1 |  | 17.2 |  |  | 
